Substitutions are numbered along the chain they refer to. Names and notes keep the numbering of the source. Where two headings read alike, the source gives them in different places.
Experiments:
FcγRIa = biological target: T1, FcγRIa (human, UniProt P12314 16-292); experiment: SPR (Biacore4000), kinetic analysis
T1 construct: extracellular domain; also called FcgRIa; FcgRI; not shown: His tag attached to the C terminus
Procedure: The variants described above were assessed for their binding to FcγR according to the method described in Reference Example 8.
Analysis of interaction between obj ective antibody and the FcγR was carried out using Biacore T100 (GE Healthcare), Biacore T200, Biacore A100, and Biacore 4000. HBS-EP+ (GE Healthcare) was used as the running buffer, and the measurement temperature was set to 25° C. Chips produced by immobilizing the antigen peptide by the amine coupling method to a Series S sensor Chip CM5 (GE Healthcare), chips produced by allowing preliminarily biotinylated antigen peptides to interact with and immobilize onto a Series S Sensor Chip SA (certified) (GE Healthcare), chips produced by immobilizing Protein L (ACTIGEN, BioVision) to Series S Sencor Chip CM5 (GE Healthcare), or chips produced by immobilizing Protein A/G (Thermo Scientific) to Series S Sencor Chip CM5 (GE Healthcare) were used. Antibodies of interest were captured onto these chips, and allowed to interact to each FcγR diluted with running buffer. To regenerate and repeatedly use the chip, the antibodies captured onto the chip were washed off by reacting 10 mM glycine-HCl, pH 1.5.

[1] = biological target: T2, FcγRIIIa extracellular domain with C-terminal His tag (human, UniProt P08637 17-208); experiment: SPR (Biacore), ratio of KD values for FcγRIIIa
T2 construct: extracellular domain; also called FcgRIIIa; CD16A
T2 sequence (P08637 17-208): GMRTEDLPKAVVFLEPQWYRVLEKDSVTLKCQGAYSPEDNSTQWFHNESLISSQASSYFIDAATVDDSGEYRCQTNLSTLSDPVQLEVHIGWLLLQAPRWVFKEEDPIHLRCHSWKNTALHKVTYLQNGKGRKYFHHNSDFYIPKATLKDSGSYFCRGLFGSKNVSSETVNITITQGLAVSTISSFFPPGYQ
Text: GpH7-A57 (SEQ ID NO: 40) resulting from the introduction of all of S239D, A330L, and I332E into GpH7-A5; GpH7-B78 (SEQ ID NO: 41) resulting from the introduction of all of S239D, A330L, and I332E into GpH7-B3; GpH7-TA7 (SEQ ID NO: 31) resulting from the introduction of all of L234Y, G236W, and S298A into GpH7-A5; and GpH7-TA45 (SEQ ID NO: 32) resulting from the introduction of all of L234Y, G236W, and S298A into GpH7-B3. […] The prepared antibodies were compared for the FcγRIIIa-binding activity using, as an indicator, KD for FcγRIIIa that was determined according to the method described in Reference Example 2.
(§1) Analysis of interaction between objective antibody and the FcγR was carried out using Biacore T100 (GE Healthcare). HBS-EP+ (GE Healthcare) was used as the running buffer, and the measurement temperature was set to 25° C. Chips produced by immobilizing the antigen peptide by the amine coupling method to a Series S Sencor Chip CM5 (GE Healthcare), or alternatively, chips produced by allowing preliminarily biotinylated antigen peptides to interact with and immobilize onto a Series S Sensor Chip SA (certified) (GE Healthcare) were used. Antibodies of interest were captured onto an antigen peptide-immobilized chip, and allowed to interact to each FcγR diluted with running buffer. To regenerate and repeatedly use the chip, the antibodies captured on the chip were washed off by reacting 10 mM glycine-HCl, pH 1.5.

[2] = biological target: T2, FcγRIIIa extracellular domain with …; experiment: SPR (Biacore), ratio of KD values for FcγRIIIa; remark: listed apart in the source
Procedure: (§2) To assess this hypothesis, GpH7-A53 (SEQ ID NO: 42) resulting from the introduction of S239D into GpH7-A5 was constructed, and, this is combined with GpH7-B78 introduced with S239D, A330L, and I332E, and the expression and preparation were performed according to the method described in Reference Example 1. The effect of the combination of S239D and S239D, A330L, and I332E was assessed by comparing the FcγRIIIa binding between the heterodimerized and homodimerized antibodies with S239D, A330L, and I332E according to the method described in Reference Example 2 (Table 14).
as §1

[3] = biological target: T2, FcγRIIIa extracellular domain with …; experiment: SPR (Biacore), antibody captured, FcγRIIIa as analyte, 1:1 Langmuir kinetic fit
Procedure: as §2, §1
(§3) The FcγR-binding activity of each antibody was assessed primarily using as an indicator the FcγR-binding activity and dissociation constant for FcγR.

[4] = biological target: T2, FcγRIIIa extracellular domain with …; experiment: as above; remark: listed apart in the source
Procedure: The prepared antibodies were compared for the FcγRIIIa-binding activity using, as an indicator, KD for FcγRIIIa that was determined according to the method described in Reference Example 2.
as §1, §3

[5] = biological target: T2, FcγRIIIa extracellular domain with …; experiment: as above; remark: listed apart in the source
Text: (§4) First, it was considered which H chain should be introduced with Y296W. GpH7-TA52 (SEQ ID NO: 44) resulting from the introduction of the mutation Y296W into GpH7-TA7 was constructed, and expressed and prepared in combination with GpH7-B78 according to the method described in Reference Example 1. Furthermore, GpH7-TA58 (SEQ ID NO: 45) resulting from the introduction of Y296W into GpH7-B78 was constructed, and expressed and prepared in combination with GpH7-TA22 according to the method described in Reference Example 1. To assess the effects of combinations with Y296W, the prepared antibodies were compared for the FcγRIIIa-binding activity according to the method described in Reference Example 2 (Table 16).
as §1, §3

[6] = biological target: T2, FcγRIIIa extracellular domain with …; experiment: SPR (Biacore), ratio of KD values for FcγRIIIa; remark: listed apart in the source
Text: as §4, §1

[7] = biological target: T2, FcγRIIIa extracellular domain with …; experiment: SPR (Biacore), antibody captured, FcγRIIIa as analyte, 1:1 Langmuir kinetic fit; remark: listed apart in the source
Text: (§5) Then, GpH7-TA54 (SEQ ID NO: 46) resulting from the introduction of Y296W into GpH7-TA22 was constructed, and expressed and prepared in combination with GpH7-B78 according to the method described in Reference Example 1. Furthermore, GpH7-TA58 (SEQ ID NO: 45) resulting from the introduction of Y296W into GpH7-B78 was constructed, and expressed and prepared in combination with GpH7-TA22 according to the method described in Reference Example 1. To assess the effect of combination with Y296W, the prepared antibodies were compared for the FcγRIIIa-binding activity according to the method described in Reference Example 2 (Table 17).
as §1, §3

[8] = biological target: T2, FcγRIIIa extracellular domain with …; experiment: SPR (Biacore), ratio of KD values for FcγRIIIa; remark: listed apart in the source
Text: as §5, §1

T1 sequence (P12314 16-292): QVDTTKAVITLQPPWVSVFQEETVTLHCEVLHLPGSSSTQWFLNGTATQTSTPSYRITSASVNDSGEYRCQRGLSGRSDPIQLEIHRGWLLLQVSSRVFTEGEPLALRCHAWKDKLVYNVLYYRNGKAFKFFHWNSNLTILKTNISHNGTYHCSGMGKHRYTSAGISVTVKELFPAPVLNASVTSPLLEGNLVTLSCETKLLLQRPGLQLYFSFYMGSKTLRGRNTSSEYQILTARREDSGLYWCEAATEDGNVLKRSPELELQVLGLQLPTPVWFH

B1: H240-Kn120/H240-Hl073/L73-k0 (antibody, human IgG1, kappa)
heavy 1: QDQLVQSGAEVKKPGASVKVSCKASGFNIKDTYIQWVRQAPGQGLEWMGRIDPLRKQTKYREKFEGRVTITADTSTNTAYMELSSLRSEDTAVYYCVRSGREFDYWGQGTLVTVSSASTKGPSVFPLAPSSKSTSGGTAALGCLVKDYFPEPVTVSWNSGALTSGVHTFPAVLQSSGLYSLSSVVTVPSSSLGTQTYICNVNHKPSNTKVDKKVEPKSCDKTHTCPPCPAPEYYWGPMVFLFPPKPKDTLMISRTPEVTCVVVDVSDEDPEVKFNWYVDGVEVHNAKTKPREEQYNATYRVVSVLTVLHQDWLNGKEYKCKVSNKDLPAPIEKTISKAKGQPREPQVCTLPPSRDELTKNQVSLWCLVKGFYPSDIAVEWESNGQPENNYKTTPPVLDSDGSFFLYSKLTVDKSRWQQGNVFSCSVMHEALHNHYTQKSLSLSP
heavy 2: QDQLVQSGAEVKKPGASVKVSCKASGFNIKDTYIQWVRQAPGQGLEWMGRIDPLRKQTKYREKFEGRVTITADTSTNTAYMELSSLRSEDTAVYYCVRSGREFDYWGQGTLVTVSSASTKGPSVFPLAPSSKSTSGGTAALGCLVKDYFPEPVTVSWNSGALTSGVHTFPAVLQSSGLYSLSSVVTVPSSSLGTQTYICNVNHKPSNTKVDKKVEPKSCDKTHTCPPCPAPELLSGPSVFLFPPKPKDTLMISRTPEVTCVVVDVSHEEPEVKFNWYVDGVEVHNAKTKPREEQYNSTYRVVSVLTVLHQDWLNGKEYKCKVSNDALPKPIEETISKAKGQPREPQVYTLPPSRCELTKNQVSLSCAVKGFYPSDIAVEWESNGQPENNYKTTPPVLDSDGSFFLVSKLTVDKSRWQQGNVFSCSVMHEALHNHYTQKSLSLSP
light: DIQMTQSPSSLSASVGDRVTITCRASQDIHKYIAWYQQKPGQAPRLLIQYTSTLQPGVPSRFSGSGSGTDYTFTISSLQPEDIATYYCLQYEQLRTFGGGTKVEIKRTVAAPSVFIFPPSDEQLKSGTASVVCLLNNFYPREAKVQWKVDNALQSGNSQESVTEQDSKDSTYSLSSTLTLSKADYEKHKVYACEVTHQGLSSPVTKSFNRGEC
notes: G236S in H240-Hl068
- koff (FcγRIa): < 5e-05 s⁻¹

B2: GpH7-A5/GpH7-B78/GpL16-k0 (antibody, human IgG1, kappa)
heavy 1: not shown
heavy 2: QVQLVQSGAEVKKPGASVTVSCKASGYTFTDYEMHWIRQPPGEGLEWIGAIDPKTGDTAYSESFQDRVTLTADKSTSTAYMELSSLTSEDTAVYYCTRFYSYTYWGQGTLVTVSSASTKGPSVFPLAPSSKSTSGGTAALGCLVKDYFPEPVTVSWNSGALTSGVHTFPAVLQSSGLYSLSSVVTVPSSSLGTQTYICNVNHKPSNTKVDKKVEPKSCDKTHTCPPCPAPELLGGPDVFLFPPKPKDTLMISRTPEVTCVVVDVSHEDPEVKFNWYVDGVEVHNAKTKPREEQYNSTYRVVSVLTVLHQDWLNGKEYKCKVSNKALPLPEEKTISKAKGQPREPQVYTLPPSRDELTKNQVSLTCLVKGFYPSDIAVEWESNGQPENNYKTTPPVLDSDGSFFLYSKLTVDKSRWQQGNVFSCSVMHEALHNHYTQESLSLSP
light: DIVMTQSPLSLPVTPGEPASISCQASESLVHSNRNTYLHWYLQKPGQSPQLLIYKVSNRFSGVPDRFSGSGSGTDFTLKISRVEAEDVGVYYCSQNTHVPPTFGQGTKVEIERTVAAPSVFIFPPSDEQLKSGTASVVCLLNNFYPREAKVQWKVDNALQSGNSQESVTEQDSKDSTYSLSSTLTLSKADYEKHKVYACEVTHQGLSSPVTKSFNRGEC
notes: Heterodimerized anti-glypican-3 IgG1 variant
- KD ratio 1 (KD of GpH7-G1d/GpL16-k0 divided by KD of the antibody) [1]: 23 fold
- KD ratio 2 (KD of GpH7-A5/GpH7-B3/GpL16-k0 divided by KD of the antibody) [1]: 30 fold
- KD ratio (KD of GpH7-A5/GpH7-B78/GpL16-k0 divided by KD of the antibody) [2]: 1 fold
- Kd [3]: 54 nM
- Kd [4]: 54 nM

B3: GpH7-TA52/GpH7-B78/GpL16-k0 (antibody, human IgG1, kappa)
heavy 1: B2 heavy 2 with L232Y, G234W, D237S, Y294W, S296A, L328A, E330I, D354K, H433R, E437K
heavy 2: B2 heavy 2
light: B2 light
notes: as for B2
- Kd [5]: 2.3 nM
- KD ratio (KD of GpH7-TA7/GpH7-B78/GpL16-k0 divided by KD of the antibody) [6]: 1.8 fold

B4: GpH7-TA7/GpH7-TA58/GpL16-k0 (antibody, human IgG1, kappa)
heavy 1: B2 heavy 2 with L232Y, G234W, D237S, S296A, L328A, E330I, D354K, H433R, E437K
heavy 2: B2 heavy 2 with Y294W
light: B2 light
notes: as for B2
- Kd [5]: 3.3 nM
- KD ratio (KD of GpH7-TA7/GpH7-B78/GpL16-k0 divided by KD of the antibody) [6]: 1.2 fold

B5: GpH7-A53/GpH7-B78/GpL16-k0 (antibody, human IgG1, kappa)
heavy 1: B2 heavy 2 with L328A, E330I, D354K, H433R, E437K
heavy 2: B2 heavy 2
light: B2 light
notes: as for B2
- KD ratio (KD of GpH7-A5/GpH7-B78/GpL16-k0 divided by KD of the antibody) [2]: 4.9 fold
- Kd [3]: 11 nM

B6: GpH7-TA22/GpH7-TA58/GpL16-k0 (antibody, human IgG1, kappa)
heavy 1: B2 heavy 2 with L232Y, G234W, S296A, L328A, E330I, D354K, H433R, E437K
heavy 2: B2 heavy 2 with Y294W
light: B2 light
notes: as for B2
- Kd [7]: 1.3 nM
- KD ratio (KD of GpH7-TA22/GpH7-B78/GpL16-k0 divided by KD of the antibody) [8]: 10 fold

B7: GpH7-TA54/GpH7-B78/GpL16-k0 (antibody, human IgG1, kappa)
heavy 1: B2 heavy 2 with L232Y, G234W, Y294W, S296A, L328A, E330I, D354K, H433R, E437K
heavy 2: B2 heavy 2
light: B2 light
notes: as for B2
- Kd [7]: 1 nM
- KD ratio (KD of GpH7-TA22/GpH7-B78/GpL16-k0 divided by KD of the antibody) [8]: 1.3 fold

B8: GpH7-A57/GpH7-B78/GpL16-k0 (antibody, human IgG1, kappa)
heavy 1: B2 heavy 2 with D354K, H433R, E437K
heavy 2: B2 heavy 2
light: B2 light
notes: the chains differ only in D356K/H435R against K439E
- KD ratio 1 (KD of GpH7-G1d/GpL16-k0 divided by KD of the antibody) [1]: 199 fold
- KD ratio 2 (KD of GpH7-A5/GpH7-B3/GpL16-k0 divided by KD of the antibody) [1]: 263 fold
- KD ratio (KD of GpH7-A5/GpH7-B78/GpL16-k0 divided by KD of the antibody) [2]: 8.7 fold
- Kd [3]: 6.2 nM
- Kd [4]: 6.2 nM

— patent US20180155451A1 (published 2018)
